Results from the Immune Epitope Database (IEDB).
One block for each sequence: values may come before it.

How the values were obtained:
[1] = target: HLA-A*30:02; assay: IEDB peptide-MHC binding, purified MHC/competitive/radioactivity; filed as Kd, often an IC50 or EC50 that approximates it; ≥ and ≤ were set here for values at or beyond the usual limits of such assays
[2] = target: HLA-B*35:01; assay: as above
[3] = target: HLA-B*15:01; assay: as above
[4] = target: HLA-A*24:02; assay: as above; details: source organism: Dengue virus 2 Jamaica/1409/1983
[5] = target: HLA-B*51:01; assay: as above
[6] = target: HLA-A*02:01; assay: IEDB peptide-MHC binding, purified MHC/competitive/fluorescence; ≥ and ≤ were set here for values at or beyond the usual limits of such assays
[7] = target: HLA-A*24:02; assay: as above
[8] = target: HLA-A*29:02; assay: IEDB peptide-MHC binding, purified MHC/competitive/radioactivity; filed as Kd, often an IC50 or EC50 that approximates it; ≥ and ≤ were set here for values at or beyond the usual limits of such assays
[9] = target: HLA-B*44:02; assay: as above
[10] = target: HLA-B*44:03; assay: as above
[11] = target: HLA-B*15:01; assay: IEDB peptide-MHC binding, purified MHC/competitive/fluorescence; filed as Kd, often an IC50 or EC50 that approximates it; ≥ and ≤ were set here for values at or beyond the usual limits of such assays; details: source organism: Escherichia coli
[12] = target: HLA-B*39:01; assay: as above; details: source organism: Escherichia coli
[13] = target: HLA-B*08:01; assay: IEDB peptide-MHC binding, purified MHC/competitive/radioactivity; filed as Kd, often an IC50 or EC50 that approximates it; ≥ and ≤ were set here for values at or beyond the usual limits of such assays; details: source organism: Dengue virus 3 Martinique/1243/1999
[14] = target: HLA-B*40:01; assay: as above
[15] = target: HLA-A*26:01; assay: IEDB peptide-MHC binding, purified MHC/direct/fluorescence; filed as Kd, often an IC50 or EC50 that approximates it; ≥ and ≤ were set here for values at or beyond the usual limits of such assays
[16] = target: HLA-A*01:01; assay: IEDB peptide-MHC binding, purified MHC/competitive/radioactivity; filed as Kd, often an IC50 or EC50 that approximates it; ≥ and ≤ were set here for values at or beyond the usual limits of such assays
[17] = target: HLA-A*30:01; assay: as above
[18] = target: HLA-A*32:01; assay: as above
[19] = target: HLA-B*46:01; assay: IEDB peptide-MHC binding, purified MHC/competitive/fluorescence; filed as Kd, often an IC50 or EC50 that approximates it; ≥ and ≤ were set here for values at or beyond the usual limits of such assays; details: source organism: Entamoeba histolytica HM-1:IMSS
[20] = target: HLA-A*26:01; assay: IEDB peptide-MHC binding, purified MHC/competitive/radioactivity; filed as Kd, often an IC50 or EC50 that approximates it; ≥ and ≤ were set here for values at or beyond the usual limits of such assays
[21] = source organism: Dengue virus 3 Sri Lanka/1266/2000
[22] = source organism: Dengue virus 2 Jamaica/1409/1983
[23] = source organism: Vaccinia virus Copenhagen
[24] = source organism: Zaire ebolavirus
[25] = source organism: Dengue virus 2 Peru/IQT2913/1996
[26] = source organism: Dengue virus 3 Martinique/1243/1999
[27] = source organism: Mammarenavirus juninense
[28] = source organism: Vaccinia virus WR
[29] = source organism: Dengue virus 4 Philippines/H241/1956
[30] = source organism: Dengue virus 3 Singapore/8120/1995
[31] = source organism: Vaccinia virus
[32] = source organism: Mammarenavirus brazilense

Sequence: LAGPISQHNY
Kd [1, 21]: ≥ 60.3 µM
Kd [2, 21]: 0.187 µM

Sequence: WHYDQDHPY
Kd [1, 22]: ≥ 39.3 µM
Kd [2, 22]: 7.59 µM

Sequence: VLYSYILFL
Kd [3, 23]: 0.559 µM

Sequence: QMAMTDTTPF
Kd [4]: 3.56 µM
Kd [3, 22]: 0.00723 µM

Sequence: LAVWNRVWI
Kd [5, 22]: 4.95 µM

Sequence: LIWKVNPEI
IC50 [6, 24]: 0.426 µM
IC50 [7, 24]: 1.31 µM

Kd ([8]; source organism: Homo sapiens): 0.108 µM
Kd ([9]; source organism: Homo sapiens): 0.005 µM
Kd ([10]; source organism: Homo sapiens): 0.0027 µM
Sequence: AELLNIPFLY

Sequence: VATTFITPM
Kd [2, 25]: 0.146 µM

Sequence: SADSFLLML
IC50 [6, 24]: ≥ 613 µM
IC50 [7, 24]: ≥ 177 µM

Kd [11]: ≥ 20 µM
Kd [12]: 0.268 µM
Sequence: RHSDTAKAF

Sequence: LATLRKLCI
Kd [13]: 0.359 µM
Kd [5, 26]: 2.53 µM

Sequence: FEKQLGQVM
Kd [14, 22]: 0.527 µM
Kd [9, 22]: 0.319 µM

Sequence: IDFLLQRWG
IC50 [6, 24]: ≥ 134 µM
IC50 [7, 24]: 68.4 µM

Sequence: ELGNILSVY
Kd [15, 27]: 0.0165 µM
Kd [16, 27]: 16.5 µM
Kd [8, 27]: 11 µM
Kd [17, 27]: 11 µM
Kd [1, 27]: 0.00402 µM
Kd [18, 27]: ≥ 77.8 µM

Sequence: CVLEAMAFL
Kd ([15]; source organism: Influenza A virus (A/chicken/Hebei/nj/2002(H9N2))): ≥ 20 µM

Sequence: FIFNIIMSF
Kd [3, 28]: 0.399 µM

Sequence: SETFSMGLL
Kd [14, 29]: 0.00353 µM

Sequence: ECLPAAPDG
IC50 [7, 24]: ≥ 394 µM

Sequence: IAKGIDAEF
Kd [19]: 0.168 µM

Sequence: LANFLCLLM
Kd [3, 28]: 1.31 µM

Sequence: LILSCIFAF
Kd [18, 23]: 0.427 µM
Kd [3, 23]: 0.543 µM

Sequence: RIKQRGILGY
Kd [1, 22]: 0.0204 µM
Kd [3, 22]: 0.0466 µM

Sequence: IPLQWIASAI
Kd [5, 26]: 0.00748 µM

Sequence: RTSFFLWVI
IC50 [6, 24]: 0.263 µM
IC50 [7, 24]: 0.0169 µM

Sequence: GPTPELEEEM
Kd [2, 26]: 4.17 µM

Sequence: LEKASFIEV
Kd [14, 30]: 1.04 µM
Kd [9, 30]: 9.57 µM

Sequence: KEISNMLSI
Kd [18, 26]: 6.37 µM
Kd [14, 26]: 0.00644 µM
Kd [9, 26]: 0.0282 µM
Kd [10, 26]: 0.0218 µM

Sequence: KVSIYKTHI
Kd [3, 28]: 1.46 µM

Sequence: IPEPDRQRTP
Kd ([2]; source organism: Dengue virus 1 Brazil/97-11/1997): 0.0231 µM

Sequence: FGAQHSTTL
IC50 ([7]; source organism: Sudan ebolavirus): 60.5 µM

Sequence: ATNLEYKTL
IC50 [6, 31]: ≥ 85.8 µM
IC50 [7, 31]: 43.6 µM

Sequence: LLHRCIYHY
Kd [3, 28]: 0.0429 µM

Sequence: AETQHGTTV
Kd [14, 29]: 0.0208 µM
Kd [10, 29]: 1.46 µM

Sequence: KVSCSMLEF
Kd [3, 23]: 0.00084 µM

Sequence: HVTRGAVLTY
Kd [20, 26]: 0.114 µM
Kd [3, 26]: 0.094 µM

Sequence: FTMRHKKATY
Kd [16, 25]: 1.26 µM
Kd [1, 25]: ≥ 43.4 µM
Kd [3, 25]: 0.138 µM

Sequence: AKNISGQSP
IC50 [7, 24]: ≥ 552 µM

Sequence: KVNACHHNY
Kd [16, 32]: 3.84 µM
Kd [20, 32]: ≥ 77.9 µM
Kd [8, 32]: 0.115 µM
Kd [17, 32]: 0.501 µM
Kd [1, 32]: 0.0117 µM
Kd [18, 32]: 0.445 µM
